17 molecules from patent US20240317871A1 (IMMUNOMIC THERAPEUTICS, published 2024) can be followed below.

Common to all, as to assay: ELISA
For orientation: An ELISA detects its analyte on a solid surface through an enzyme-linked reagent.

In one test the target is T1, murine HVEM (murine, UniProt Q80WM9 39-206, limits assumed).
T1 construct: also called Mouse
T1 sequence (looked up): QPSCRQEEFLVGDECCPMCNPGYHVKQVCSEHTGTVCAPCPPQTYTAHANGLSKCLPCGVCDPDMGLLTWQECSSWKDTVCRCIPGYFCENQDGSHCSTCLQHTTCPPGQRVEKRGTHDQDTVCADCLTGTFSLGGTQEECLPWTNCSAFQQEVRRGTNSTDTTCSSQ

Another test has as its target T2, cynomolgus monkey HVEM (cynomolgus monkey, UniProt A0A2K5W0R1 39-203).
T2 sequence: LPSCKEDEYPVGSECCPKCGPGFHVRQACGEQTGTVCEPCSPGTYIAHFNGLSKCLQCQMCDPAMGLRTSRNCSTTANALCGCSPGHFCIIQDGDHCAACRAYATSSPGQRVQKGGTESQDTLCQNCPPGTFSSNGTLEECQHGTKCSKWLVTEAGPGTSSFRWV

The target of the next test is T3, human HVEM (human, UniProt Q92956 39-202, limits assumed).
T3 sequence (looked up): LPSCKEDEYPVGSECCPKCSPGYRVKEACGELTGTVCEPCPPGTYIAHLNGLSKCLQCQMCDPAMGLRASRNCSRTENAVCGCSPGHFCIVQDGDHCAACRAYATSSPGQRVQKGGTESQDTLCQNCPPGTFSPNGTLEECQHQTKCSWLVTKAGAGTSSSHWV
Also: test concentration or dose not given here.

B1: Ab_032 (H5S15-7A8A) (antibody, V domains shown)
VH: QIQLVQSGPELKKPGETVKISCKASGYTFTNYGMNWVKQAPGKGLKWVGWINTYTGEPTYAEDFKGRFAFSLETSASTAYLQINNLKNEDMATYFCARSFYGSEAYWGQGTLVTVSA
VL: QIVLTQSPAIMSASLGEEITLTCSASSSVSFMHWYQQKSGTSPKLLIYSTSNLASGVPSRFSGSGSGTFYSLTISSVEAEDAADYYCHQWSSYLWTFGGGAKLEIK
notes: also called Ab_32
B1: the ELISA signal was found to be 0.045 with murine HVEM, 2.87 with cynomolgus monkey HVEM and 3.04 with human HVEM.

B2: Ab_033 (H5S15-7B8A) (antibody, V domains shown)
VH: QIQLVQSGPELKKPGETVKISCKASGYTFTNYGMNWVKQAPGKGLKWVGWINTYTGEPTYADDFKGRFAFSLETSASTAYLQINNLKNEDMATYFCARSFYGSEAYWGQGTLVTVSA
VL: QIVLTQSPAIMSASLGEEITLTCSASSSVSFMHWYQQKSGTSPKLLIYSTSNLASGVPSRFSGSGSGTFYSLTISSVEAEDAADYYCHQWSSYLWTFGGGAKLEIK
notes: also called Ab_33
Regarding B2, the ELISA signal in the test with murine HVEM is 0.043; with cynomolgus monkey HVEM it was 3.02; in the test with human HVEM, 3.1.

B3: Ab_040 (H5S15-23A21A) (antibody, V domains shown)
VH: EVQLQQSGTVLARPGASVKMSCKASGYTFTSFWMHWVKQRPGQGLEWIGAISPGNSETTYNQKFTGKAKLTAVTSTSTAYMELSSLTNEDSAVYYCTKIYYDYDDGYWGQGTTLTVSS
VL: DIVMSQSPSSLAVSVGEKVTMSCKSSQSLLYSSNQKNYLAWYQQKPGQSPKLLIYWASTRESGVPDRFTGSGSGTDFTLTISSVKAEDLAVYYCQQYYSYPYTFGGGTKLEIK
notes: also called Ab_40
For B3, the ELISA signal with murine HVEM was 0.05; in the test with cynomolgus monkey HVEM it was 0.098; with human HVEM it was 0.069.

B4: Ab_037 (H5S15-13A15A) (antibody, V domains shown)
VH: QVQLKQSGPGLVQPSQSLSITCTVSGFSLTSYGVHWVRQSPGKGLEWLGVIWRGGSTDYNAAFMSRLSITKDNSKSQVFFKMNSLQADDTAIYYCAKTGFAYWGQGTLVTVSA
VL: QIVLTQSPAIMSASPGEKVTMTCSASSSVSYMHWYQQKSGTSPKRWIYDTSKLASGVPARFSGSGSGTSYSLTISSMEAEDAATYYCQQWSSNPLTFGAGTKLELK
notes: also called Ab_37
For B4, the ELISA signal is 0.043 with murine HVEM, 0.06 with cynomolgus monkey HVEM and 0.059 in the test with human HVEM.

B5: Ab_061 (H5S19-13A16B) (antibody, V domains shown)
VH: QIQLVQSGPELKKPGETVKISCKASGYTFTNFGVNWVKQAPGKGLKWMGWINTYTGEPTYADDFKGRFAFSLETSASTAYLRINNLKNEDTATYFCARSYYANYAYWGQGTTLTVSS
VL: QIVLTQSPAIMSASPGEKVTLTCSASSSVDSSYLYWYQQKPGSSPKLWIYGTSNLASGVPARFSGSGSGTSYSLTISSMEAEDAASYFCHQWNSYPWTFGGGTKLEIK
notes: also called Ab_61
Take B5: the values for the ELISA signal in the test with murine HVEM, with cynomolgus monkey HVEM and with human HVEM were 0.043, 3.03 and 2.98, respectively.

B6: Ab_075 (H5S20-12A10A) (antibody, V domains shown)
VH: QIQLVQSGPELKKPGETVKISCKASGYTFTNFGMNWVRQAPGKGLKWMGWINTYTGEPTYADDFKGRFAFSLETSASTAYLQINNLKNDDMATYFCARSLYGNRDYWGQGTTLTVSS
VL: QIVLTQSPAIMSASLGEEITLTCSASSSVSYMHWYQQRSGTSPKLLIYSTSNLASGVPSRFSGSGSGTFYSLTISSVEAEDAADYYCHQWSSYRTFGGGTKLEIK
notes: also called Ab_75
Consider B6, for which the values for the ELISA signal in the test with murine HVEM, with cynomolgus monkey HVEM and in the test with human HVEM were 0.048, 3.04 and 3.04, respectively.

B7: Ab_060 (H5S19-8A16A) (antibody, V domains shown)
VH: QIQLVQSGPELKKPGETVKISCKASGYTFTNFGVNWVKQAPGKGLKWMGWINTYTGEPTYADDFKGRFAFSLETSASTAYLRINNLKNEDTASYFCARSYYANNAYWGQGTTLTVSS
VL: QIVLTQSPAIMSASPGEKVTLTCSASSSVDSSYLYWFQQKPGSSPKLWIYGTSNLASGVPARFSGSGSGTSYSLTISSMEAEDAASYFCHQWNSYPWTFGGGTKLEIK
notes: also called Ab_60
As to B7, the ELISA signal amounted to 0.044 with murine HVEM, 3.03 with cynomolgus monkey HVEM and 3.09 in the test with human HVEM.

B8: Ab_062 (H5S19-16A18A) (antibody, V domains shown)
VH: QIQLVQSGPELKKPGETVKISCKASGYTFTNFGVNWVKQAPGKGLKWMGWINTYTGEPTYADDFKGRFAFSLETSASTAYLQINNLKNEDTATYFCVRSYYGNSGYWGQGTTLTVSS
VL: QIVLTQSPAIMSTSPGEKVTLTCSASSSVSSSYLYWYQQKPGSSPKLWIYSTSNLASGVPARFSGSGSGTSYSLTISSMEAEDAASYFCHQWSTYPWTFGGGTKLEIK
notes: also called Ab_62
Regarding B8, the ELISA signal in the test with murine HVEM was found to be 0.045; in the test with cynomolgus monkey HVEM, 2.98; with human HVEM, 2.95.

B9: Ab_021 (H5S14-29A20A) (antibody, V domains shown)
VH: EVQLQQSGPELVKPGASVKMSCKASGYTFTSYVMHWVKQKPGQGLEWIGYINPYNDGTKYNEKFKGKATLTSDKSSSTAYMELSSLTSEDSAVYYCARGIITTVVEPILYAMDYWGQGTSVTVSS
VL: NIVLTQSPASLAVSLGQRATISCRASESVDSYGNSFMHWYQQKPGQPPKLLIYLASNLESGVPARFSGSGSRTDFTLTIDPVEADDAATYYCQQNNEDPYTFGGGTKLEIK
notes: also called Ab_21
With B9, the ELISA signal with murine HVEM stood at 0.042; with cynomolgus monkey HVEM, 0.061; in the test with human HVEM, 0.046.

B10: Ab_023 (H5S14-27A23A) (antibody, V domains shown)
VH: EVKLDETGGGLVQPGRPMKLSCVASGFTFSDYWMNWVRQSPEKGLEWVAQIRNKPYNYETYYSDSVKGRFTISRDDSKSSVYLQMNNLRAEDMGIYYCTWGNYWGQGTTLTVSS
VL: DIKMTQSPSSMYASLGERVTITCKASQDINSYLSWFQQKPGKSPKTLIYRANRLVDGVPSRFSGSGSGQDYSLTISSLEYEDMGIYYCLQYDEFPWTFGGGTKLEIK
notes: also called Ab_23
As for B10, the ELISA signal is 0.042 in the test with murine HVEM, 0.057 in the test with cynomolgus monkey HVEM and 0.045 in the test with human HVEM.

B11: Ab_048 (H5S19-24A22A) (antibody, V domains shown)
VH: QVQLQQSGGELLRPGTSVKVSCKASGYAFTNYLIEWVKQRPGQGLEWIGVINPGSGGIYYKEKFKDKAILTADKSSSTAYMQLSSLTSDDSAVYFCARGDAMDFWGQGTSVTVSS
VL: DAVMTQTPLSLTVSLGDQASISCRSSQTLENTNGNTYLNWYLQKPGQSPQLLIYRVSNRFSGVLDRFSGSGSGTDFTLKISRVEAEDLGVYFCLQVTHVPYTFGGGTKLEIK
notes: also called Ab_48
Turning to B11, the ELISA signal worked out at 0.044 with murine HVEM, 0.826 with cynomolgus monkey HVEM and 2.5 with human HVEM.

B12: Ab_039 (H5S15-21A19A) (antibody, V domains shown)
VH: QIQLVQSGPDLKKPGETVKISCKASGYTFTNYGMNWVKQAPGKDLKWMGWINTYTGEPTYADDFKGRFAFSLETSASTAYLQINNLKNDDTATYFCARSINYDSDEKWGQGTSVTVSS
VL: QIVLTQSPAIMSASLGERVTLTCTASSSVSSSYLHWYQQKPGSSPKLWIYDTSNLASGVPARFSGSGSGTSYSLTISSMEAEDAATYYCHQYHRSQWTFGGGTKLEIK
notes: also called Ab_39
As to B12, the ELISA signal with murine HVEM worked out at 0.042; with cynomolgus monkey HVEM it was 3.03; with human HVEM, 2.87.

B13: Ab_024 (H5S15-1A1A) (antibody, V domains shown)
VH: EVQLQQSGAELVKPGASVKLSCTASGFNIKDTYMHWVKQRPEQGLAWIGRIAPANGYTKYDPKFQGKATITTDTSSNTAYLHLSRLTSEDTAVYYCANYFGNTYDWFAFWGQGTLVTVSA
VL: ENVLTQSPAIMSASPGEKVTMTCSAGSSVSYMHWYQQKSSTSPKLWIYDTSKLPSGVPGRFSGSGSGNSYSLTISSMEAEDVATYYCFQGSGFPLTFGSGTKLEIK
notes: also called Ab_24
B13: the values for the ELISA signal with murine HVEM, with cynomolgus monkey HVEM and with human HVEM were 0.044, 0.063 and 0.048, respectively.

B14: Ab_038 (H5S15-19A18A) (antibody, V domains shown)
VH: QVQLKESGPGLVAPSQSLSITCTVSGFSLTGYGVNWVRQPPGKGLEWLGMIWGDGGTDYNSALKSRLSISKDNSKSQVFLKMNSLQTDDTARYYCARDNYHTVVNGDYWGQGTSVTVSS
VL: ENVLTQSPAIMSASPGEKVTMTCRASSSVSSSYLHWYQQKSGASPKLWIYSTSNLASGVPARFSGSGSGTSYSLTISSVEAEDAATYYCQQYSGYPLTFGGGTKLEIK
notes: also called Ab_38
Regarding B14, the ELISA signal in the test with murine HVEM was determined as 0.043; with cynomolgus monkey HVEM, 0.06; with human HVEM it was 0.049.

B15: Ab_041 (H5S15-27A22A) (antibody, V domains shown)
VH: EVQLQQSGAELVKPGASVKLSCTASGFNIKDTYMHWVKQRPEQGLEWIGRIDPANGNTKYDPKFQGKATITADTSSNTAYLQLSSLTSEDTAVYYCARSRRYFDVWGAGTTVTVSS
VL: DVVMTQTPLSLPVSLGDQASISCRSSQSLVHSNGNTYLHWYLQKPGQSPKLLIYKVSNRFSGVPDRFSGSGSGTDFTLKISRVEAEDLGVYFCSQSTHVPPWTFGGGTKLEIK
notes: also called Ab_41
As for B15, the results for the ELISA signal with murine HVEM, with cynomolgus monkey HVEM and with human HVEM were 0.045, 0.076 and 0.059, respectively.

B16: Ab_042 (H5S15-28A23A) (antibody, V domains shown)
VH: QVQLQQSGAELVKPGASVKMSCKAFGYTFTTYPIEWMKQNHGKSLEWIGNFHPYNDDTKYNEKFKGKAKLTVEKSSSTVYLELSRLTSDDSAVYYCARGGFAYWGQGTLVTVSA
VL: DVVMTQTPLSLPVSLGDQASISCRSSQSLVHSNGNTYLHWYLQKPGQSPKLLIYKVSNRFSGVPDRFSGSGSGTDFTLKISRVEAEDLGVYFCSQSTHVPFTFGSGTKLEIK
notes: also called Ab_42
With B16, the figures for the ELISA signal with murine HVEM, with cynomolgus monkey HVEM and in the test with human HVEM were 0.046, 0.062 and 0.049, respectively.

B17: Ab_047 (H5S15-36A32A) (antibody, V domains shown)
VH: EVQLQQSGAELVKPGASVKLSCTASGFNIKDTYMHWVKQRPEQGLEWIGRIDPANGNTKYDPKFQGKATITADTSSNTAYLQLSSLTSEDTAVYYCARPYGNYGFAYWGQGTLVTVSA
VL: DIQMTQSPASLSASVGETVTITCRASGNIHNYLAWYQQKQGKSPQLLVYNAKTLADGVPSRFSGSGSGTQYSLKINSLQPEDFGSYYCQHFWSTFTFGSGTKLEIK
notes: also called Ab_47
B17: the ELISA signal came out at 0.051 with murine HVEM, 0.743 with cynomolgus monkey HVEM and 1.19 with human HVEM.
